Results from patent US20140223606, “COMPOSITIONS AND METHODS COMPRISING SEQUENCES HAVING MEGANUCLEASE ACTIVITY” (PIONEER HI BRED INTERNATIONAL INC, published 2014).
Numbering of substitutions follows the chain as printed.

Legend:
Details in all cases: tags: NLS, 6xHis
ZM6.3 = target: T1, ZM6.3 (artificial); assay: cell_activity; yeast 37 C; 28 C: 0
T1 chain: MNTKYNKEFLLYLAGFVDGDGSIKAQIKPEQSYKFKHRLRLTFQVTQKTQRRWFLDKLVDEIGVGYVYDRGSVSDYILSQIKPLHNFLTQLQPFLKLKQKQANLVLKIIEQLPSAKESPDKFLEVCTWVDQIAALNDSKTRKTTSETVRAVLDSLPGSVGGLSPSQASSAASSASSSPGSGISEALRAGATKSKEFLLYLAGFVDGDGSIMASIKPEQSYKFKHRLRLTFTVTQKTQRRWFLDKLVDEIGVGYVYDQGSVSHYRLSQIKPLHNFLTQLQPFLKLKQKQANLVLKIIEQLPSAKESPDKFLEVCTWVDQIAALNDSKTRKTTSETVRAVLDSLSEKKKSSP
Experimental: A 3 mL culture of selective media (MP Biomedical) was inoculated with a single colony of the yeast screening strain and grown at 30° C. overnight. On the following day, a 50 ml YPD culture (MP Biomedical) was started with 2 ml of the overnight culture and grown at 30° C. overnight. On the following day, the cells were harvested by centrifugation at 4000 rpm. The cells were resuspended in 100 ml ice cold water and centrifuged again. The cells were then washed in 1.2 M sorbitol, followed by treatment with 2 ml of 10 mM Tris pH 8.0, 1 mM EDTA, 100 mM Lithium acetate, 10 mM DTT, 0.6M sorbitol for 30 minutes at 30° C. with shaking. The cells were recovered by centrifugation, washed in 40 ml 1.2M sorbitol and finally resuspended in 250 microliters of 1.2M sorbitol. 50 microliter aliquots were transferred to test tubes on ice. Up to 5 microliters of DNA (100-500 nanograms) were added. The suspension was transferred to a 0.2 cm electroporation cuvette, on ice. Electroporation was performed with a pulse charge at 1.5 kV, 200 ohms, 25 microF (pulse time of 5 milliseconds). 1 mL YPD media (MP Biomedical) was added and the cells were allowed to recover at 30° C. for 1-2 hr. The cells were centrifuged, resuspended in 100 uL 1M sorbitol and plated on selective media lacking leucine and containing 2% galactose. The resulting yeast colonies were incubated at various temperatures ranging from 22 to 37 degrees Celsius for 7-10 days. I-CreI and meganucleases derived from it have maximal activity at or above 37 degrees Celsius. Screening was performed at a range of temperatures from 22 to 37 degrees in order to observe increases in activity at lower temperatures which are relevant to certain biological systems (eg. plant cells, plant cell cultures, etc). At that time the red/white sectoring phenotype, indicative of meganuclease activity was observed. Colonies with increased white sectoring over the parental meganuclease (indicating colonies expressing a meganuclease with increased meganuclease activity), also referred to as “hits” and sometimes completely white, were isolated for further analysis. […]

ZM6.3(H2) = target: T2, ZM6.3(H2) (artificial); assay: cell_activity; yeast 37 C; 28 C: 2
T2 chain: T1 chain with Y12H, V105A, E124R, Q237R, D340L
Experimental: (§1) A 3 mL culture of selective media (MP Biomedical) was inoculated with a single colony of the yeast screening strain and grown at 30° C. overnight. On the following day, a 50 ml YPD culture (MP Biomedical) was started with 2 ml of the overnight culture and grown at 30° C. overnight. On the following day, the cells were harvested by centrifugation at 4000 rpm. The cells were resuspended in 100 ml ice cold water and centrifuged again. The cells were then washed in 1.2 M sorbitol, followed by treatment with 2 ml of 10 mM Tris pH 8.0, 1 mM EDTA, 100 mM Lithium acetate, 10 mM DTT, 0.6M sorbitol for 30 minutes at 30° C. with shaking. The cells were recovered by centrifugation, washed in 40 ml 1.2M sorbitol and finally resuspended in 250 microliters of 1.2M sorbitol. 50 microliter aliquots were transferred to test tubes on ice. Up to 5 microliters of DNA (100-500 nanograms) were added. The suspension was transferred to a 0.2 cm electroporation cuvette, on ice. Electroporation was performed with a pulse charge at 1.5 kV, 200 ohms, 25 microF (pulse time of 5 milliseconds). 1 mL YPD media (MP Biomedical) was added and the cells were allowed to recover at 30° C. for 1-2 hr. The cells were centrifuged, resuspended in 100 uL 1M sorbitol and plated on selective media lacking leucine and containing 2% galactose. The resulting yeast colonies were incubated at various temperatures ranging from 22 to 37 degrees Celsius for 7-10 days. I-CreI and meganucleases derived from it have maximal activity at or above 37 degrees Celsius. Screening was performed at a range of temperatures from 22 to 37 degrees in order to observe increases in activity at lower temperatures which are relevant to certain biological systems (eg. plant cells, plant cell cultures, etc). At that time the red/white sectoring phenotype, indicative of meganuclease activity was observed. Colonies with increased white sectoring over the parental meganuclease (indicating colonies expressing a meganuclease with increased meganuclease activity), also referred to as “hits” and sometimes completely white, were isolated for further analysis.
(§2) A total of 15 Zm6.3 variants with increased activity were confirmed in the yeast system (as described in Example 6). Increased activity was observed across a range of temperatures: 28 degrees Celsius, 30 degrees Celsius and 37 degrees Celsius, as shown in Table 15.

ZM6.3(H3) = target: T3, ZM6.3(H3) (artificial); assay: cell_activity; yeast 37 C; 28 C: 2
T3 chain: T1 chain with Y12H, Q50R, E311R
Experimental: as §1, §2

ZM6.3(G3) = target: T4, ZM6.3(G3) (artificial); assay: cell_activity; yeast 37 C; 28 C: 2
T4 chain: T1 chain with Q50R, F54I
Experimental: as §1, §2

ZM6.3(G4) = target: T5, ZM6.3(G4) (artificial); assay: cell_activity; yeast 37 C; 28 C: 2
T5 chain: T1 chain with Y12H, S32R, E124R
Experimental: as §1, §2

B1: ZM6.3 recognition site (dsDNA)
DNA 1: CAGGCTCTCGTAAATGCGCCTG
DNA 2: CAGGCGCATTTACGAGAGCCTG
activity (ZM6.3): 2 score 0-4
activity (ZM6.3(H2)): 4 score 0-4
activity (ZM6.3(H3)): 4 score 0-4
activity (ZM6.3(G3)): 4 score 0-4
activity (ZM6.3(G4)): 4 score 0-4
